Results on eleven molecules are retold here after patent publication US20240026343A1, “METHOD FOR SCREENING DIMERIZED CYCLIC PEPTIDE” (AJINOMOTO CO., INC., priority 2021, published 2024).

The target in one test is Met (Homo sapiens, UniProt P08581). Conditions: reported; cited from earlier work.
The test system of test [1] is HGF-Erk-SRE pathway. Put plainly: SRE luciferase reporter assay of aMD4dY-leucine zipper fusion dimers (Example 2). The conditions noted are these: HEK293E cells with SRE reporter; cell-free expression reaction solution at 25- to 625-fold dilution; overnight stimulation; HGF 0 to 100 ng/mL as comparator; FIGS. 8-13. The format is cell-based. As for the experimental part: (§1) The dimer of each aMD4dY-leucine zipper fusion was evaluated by luciferase assay. To 25 μL of Opti-MEM medium (Thermo Fisher Scientific), 0.6 μL of Attractene Transfection Reagent (QIAGEN) was added and incubated at room temperature for 5 minutes. To the above mixed solution, a mixed solution of 25 μL of Opti-MEM and 1 μL of SRE reporter vector (QIAGEN) was added and incubated at room temperature for 20 minutes. This mixed solution was added to a 96-well plate, HEK293E cells were seeded thereon at 40,000 cells/well, and incubated overnight at 37° C. in a 5% CO2 incubator. After transfection, all the culture supernatant was removed, and 100 μL of Opti-MEM medium (evaluation basal medium), containing 0.5% FBS (Thermo Fisher Scientific), 1% non-essential amino acid solution (Thermo Fisher Scientific), and penicillin-streptomycin (Nacalai Tesque), was added thereto, which was cultured at 37° C. for 4 hours to starve the cells.
To the evaluation basal medium, 0 to 100 ng/mL HGF was added, or the cell-free expression reaction solution was added at a 25- to 625-fold dilution with respect to the medium, and 100 μL of the evaluation basal medium was added to the cells. The cells were stimulated by culturing overnight at 37° C. in a 5% CO2 incubator.
Dual-Luciferase Reporter Assay System (Promega) was used for signal intensity detection. The medium supernatant in an amount of 100 μL was removed, 50 μL of Glo reagent was added, and cells were lysed at room temperature for 10 minutes. Activation of the HGF-Erk-SRE pathway was quantified by detecting Firefly luciferase luminescence from cell lysates with a plate reader. Subsequently, 50 μL of Glo & Stop reagent solution was added, and after 10 minutes, luminescence of Renilla luciferase, an internal standard, was detected to quantify the cell count. The signal activity of each sample was quantified as SRE activity=(luminescence intensity of Firefly luciferase)/(luminescence intensity of Renilla luciferase). A signal activity value relative to a sample without an addition of evaluation compound was obtained and defined as relative reporter activity.
In general terms: In a reporter assay the amount or activity of a reporter protein is the signal.

The test system of test [2] is HGF-Erk-SRE pathway. Put plainly: SRE luciferase reporter assay of cell-free translation products from ribosome display DNAs (Example 4). The format is cell-based. The conditions noted are these: HEK293E cells with SRE reporter; cell-free translation product at 25- to 625-fold dilution; HGF comparator; FIG. 16. How it is done:
For cell-free translation, to 20 ng of each DNA, 2.5 μL of Solution I, 0.25 μL of Solution II, 0.5 μL of Solution III, and 1.75 μL of water were added, and the mixture was incubated at 37° C. for 6 hours to carry out the translation reaction.
as §1, with “Reporter assays were carried out as follows.” for “The dimer of each aMD4dY-leucine zipper fusion was evaluated by luciferase assay.”
To the evaluation basal medium, 0 to 100 ng/mL HGF was added, or the above cell-free expression reaction solution was added at a 25- to 625-fold dilution with respect to the medium, and 100 μL of the evaluation basal medium was added to the cells. The cells were stimulated by culturing overnight at 37° C. in a 5% CO2 incubator.
Dual-Luciferase Reporter Assay System (Promega) was used for signal intensity detection. […] Activation of the HGF-Erk-SRE pathway was quantified by detecting Firefly luciferase luminescence from cell lysates with a plate reader. Subsequently, 50 μL of Glo & Stop reagent solution was added, and after 10 minutes, luminescence of Renilla luciferase, an internal standard, was detected to quantify the cell count. The signal activity of each sample was quantified as SRE activity=(luminescence intensity of Firefly luciferase)/(luminescence intensity of Renilla luciferase). […]

The target of test [3] is T1, Recombinant Human HGFR/c-MET Fc Chimera Protein (R&D systems, 8614-MT-100) (human, UniProt P08581 25-932).
T1 construct: Bought reagent; also called c-Met immobilized on magnetic beads; Fc part of the bought chimera not given
T1 sequence (P08581 25-932, change not shown): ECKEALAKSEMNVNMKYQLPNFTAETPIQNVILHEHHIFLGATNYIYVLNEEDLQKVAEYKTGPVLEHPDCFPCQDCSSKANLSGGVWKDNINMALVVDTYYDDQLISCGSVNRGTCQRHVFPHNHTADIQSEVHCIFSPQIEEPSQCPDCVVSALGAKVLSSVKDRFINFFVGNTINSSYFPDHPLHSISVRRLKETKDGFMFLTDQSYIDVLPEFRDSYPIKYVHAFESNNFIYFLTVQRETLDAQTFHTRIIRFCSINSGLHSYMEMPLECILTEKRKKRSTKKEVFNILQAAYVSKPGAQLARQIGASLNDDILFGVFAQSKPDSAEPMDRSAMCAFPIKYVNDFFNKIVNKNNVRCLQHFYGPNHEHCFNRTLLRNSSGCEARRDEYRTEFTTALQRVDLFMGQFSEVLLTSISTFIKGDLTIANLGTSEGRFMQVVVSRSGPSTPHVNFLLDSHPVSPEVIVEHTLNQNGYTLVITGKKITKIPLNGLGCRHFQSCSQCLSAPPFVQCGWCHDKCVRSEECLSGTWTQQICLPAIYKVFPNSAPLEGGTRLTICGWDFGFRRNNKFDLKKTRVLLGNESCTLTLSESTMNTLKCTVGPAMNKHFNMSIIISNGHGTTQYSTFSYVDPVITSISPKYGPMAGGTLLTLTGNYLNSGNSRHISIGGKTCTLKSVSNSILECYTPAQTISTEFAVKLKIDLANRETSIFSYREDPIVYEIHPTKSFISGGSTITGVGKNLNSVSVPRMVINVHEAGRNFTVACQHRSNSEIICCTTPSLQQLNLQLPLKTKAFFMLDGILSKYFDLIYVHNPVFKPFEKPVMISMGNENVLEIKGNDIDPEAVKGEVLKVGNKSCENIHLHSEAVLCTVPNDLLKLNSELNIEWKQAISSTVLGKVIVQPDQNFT
The experiment in a line: ribosome display selection on c-MET Fc chimera on magnetic beads, from a 1:50:50 DNA mix; DNA length analysis of the recovered cDNA.

Test [4] concerns the target T2, Recombinant Human Erythropoietin R Fc Chimera Protein, CF (R&D systems, 963-ER-50) (human, UniProt P19235 25-250).
T2 construct: Bought reagent; also called EPO receptor immobilized on magnetic beads; Fc part of the bought chimera not given
T2 sequence (looked up): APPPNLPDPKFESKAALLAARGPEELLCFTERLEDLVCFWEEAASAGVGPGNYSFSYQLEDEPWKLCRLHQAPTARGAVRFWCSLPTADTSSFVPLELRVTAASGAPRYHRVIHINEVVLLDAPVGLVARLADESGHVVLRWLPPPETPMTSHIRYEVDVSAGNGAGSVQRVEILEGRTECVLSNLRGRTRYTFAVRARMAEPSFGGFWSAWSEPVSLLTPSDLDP
Put plainly: ribosome display selection on Erythropoietin R Fc chimera on magnetic beads, from a 1:50:50 DNA mix; DNA length analysis of the recovered cDNA.

Positions count from the first letter of the chain named. Positions of bridges follow the written chain, without caps; N, C: chain ends. No end group written: not given here.

Sequence of Met (P08581 25-1390): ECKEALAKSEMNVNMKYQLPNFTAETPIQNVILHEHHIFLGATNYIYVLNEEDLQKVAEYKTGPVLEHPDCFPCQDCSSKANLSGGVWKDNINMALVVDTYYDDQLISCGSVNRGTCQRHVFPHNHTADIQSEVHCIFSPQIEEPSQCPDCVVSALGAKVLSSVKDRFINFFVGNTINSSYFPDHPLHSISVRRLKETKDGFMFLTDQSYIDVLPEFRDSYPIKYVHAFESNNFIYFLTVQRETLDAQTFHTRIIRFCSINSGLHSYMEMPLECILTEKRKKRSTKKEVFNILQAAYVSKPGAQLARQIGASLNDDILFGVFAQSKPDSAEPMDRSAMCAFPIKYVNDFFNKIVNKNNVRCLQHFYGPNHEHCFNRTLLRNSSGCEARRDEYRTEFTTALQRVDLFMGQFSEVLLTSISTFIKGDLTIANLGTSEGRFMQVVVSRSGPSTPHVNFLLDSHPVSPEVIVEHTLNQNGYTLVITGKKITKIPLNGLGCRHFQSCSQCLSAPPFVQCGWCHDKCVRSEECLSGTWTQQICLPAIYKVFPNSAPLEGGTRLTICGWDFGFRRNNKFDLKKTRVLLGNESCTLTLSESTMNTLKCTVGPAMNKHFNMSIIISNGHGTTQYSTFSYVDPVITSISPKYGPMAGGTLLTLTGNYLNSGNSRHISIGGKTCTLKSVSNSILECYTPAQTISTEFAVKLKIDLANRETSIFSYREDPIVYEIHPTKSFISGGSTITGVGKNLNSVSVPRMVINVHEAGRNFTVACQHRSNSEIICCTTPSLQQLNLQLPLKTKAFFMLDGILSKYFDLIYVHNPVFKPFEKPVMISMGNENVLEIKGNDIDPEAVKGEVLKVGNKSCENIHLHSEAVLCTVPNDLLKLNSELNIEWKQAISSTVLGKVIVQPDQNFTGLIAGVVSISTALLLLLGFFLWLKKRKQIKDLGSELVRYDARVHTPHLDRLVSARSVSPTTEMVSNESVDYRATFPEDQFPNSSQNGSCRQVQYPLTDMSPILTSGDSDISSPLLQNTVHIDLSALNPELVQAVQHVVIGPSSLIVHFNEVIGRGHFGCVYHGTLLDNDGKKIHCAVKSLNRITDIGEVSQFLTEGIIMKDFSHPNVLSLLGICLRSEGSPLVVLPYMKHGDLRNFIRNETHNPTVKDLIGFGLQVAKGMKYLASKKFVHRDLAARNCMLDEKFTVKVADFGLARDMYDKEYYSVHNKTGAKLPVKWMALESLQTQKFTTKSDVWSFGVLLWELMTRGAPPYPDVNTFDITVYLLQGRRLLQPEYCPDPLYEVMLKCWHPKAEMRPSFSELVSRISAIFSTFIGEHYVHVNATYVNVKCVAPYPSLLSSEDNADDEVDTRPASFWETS

In the case of “CRQFNRRTHEVWNLDC (disulfide 1-16) [aMD4dY]”, the “HGF-like activity (Met agonist) when dimerized” value with Met is reported as “exhibits an HGF-like activity”.

B1: aMD4dY-PA8-Jun: aMD4dY-leucine zipper fusion without cysteine residue, SEQ ID NO: 46 (protein)
chain: MAETCRQFNRRTHEVWNLDCGAAPAAPAPAAGGGRIARLEEKVKTLKAQNSELASTANMLREQVAQLKQKVMN
modifications: aMD4dY-PA8-Jun; DISULFID 5..20 Disulfide bridge between Cys-5 and Cys-20
As to B1, the “relative reporter activity (SRE activity)” value (“relative reporter activity” below) with HGF-Erk-SRE pathway [1] was “did not show activity”.

B2: TPO-Jun-cys-N11-SecM-GS3: thrombopoietin receptor binding cyclic peptide-leucine zipper fusion, SEQ ID NO: 72 (protein)
chain: MAETCADGPTLREWISFCGAAPAAPAPAAGGRIARLEEKVKTLKAQNSELASTANMLREQVAQLKQKVMNGCGGKDHLIHNHHKHEHAHAEHLFSTPVWISQAQGIRAGGSGSGS
modifications: cyclic peptide disulfide; TPO-Jun-cys-N11-SecM-GS3; DISULFID 5..18 Disulfide bridge between Cys-5 and Cys-18
For B2, the “relative SRE reporter activity (relative receptor activity)” value in the test on HGF-Erk-SRE pathway [2] is listed as “only aMD4dY-Jun-cys-N11-SecM-GS3 showed activity”.

B3: aMD4dY-PA8-cys-Jun: aMD4dY-leucine zipper fusion polypeptide, SEQ ID NO: 45, cell-free expressed, forms disulfide dimer (protein)
chain: MAETCRQFNRRTHEVWNLDCGAAPAAPAPAAGCGGRIARLEEKVKTLKAQNSELASTANMLREQVAQLKQKVMN
modifications: disulfide dimer; aMD4dY-PA8-cys-Jun; DISULFID 5..20 Disulfide bridge between Cys-5 and Cys-20
Take B3: in the test on HGF-Erk-SRE pathway [1], the “relative reporter activity” value is given as “showed activity comparable to HGF”.

B4: aMD4dY-PA8-cys-JunΔhep: aMD4dY fusion with c-Jun zipper having heparin binding ability removed, SEQ ID NO: 47 (protein)
chain: B3 chain with R36Q, R39Q, K45Q, K48Q
modifications: aMD4dY-PA8-cys-Junhep; DISULFID 5..20 Disulfide bridge between Cys-5 and Cys-20
As for B4, the “relative reporter activity” value with HGF-Erk-SRE pathway [1] is “activity was also exhibited”.

B5: aMD4dY-Jun-cys-N11-SecM-GS3 (designed binder)
chain: MAETCRQFNRRTHEVWNLDCGAAPAAPAPAAGGRIARLEEKVKTLKAQNSELASTANMLREQVAQLKQKVMNGCGGKDHLIHNHHKHEHAHAEHLFSTPVWISQAQGIRAGGSGSGS
modifications: cyclic peptide part closed by a disulfide bond between its two Cys
notes: In the reporter assays it was a free cell-free translation product
As to B5, the binding result in test [3] is given as “binds”.

B6: EMP′-Jun-cys-N11-SecM-GS3: erythropoietin receptor binding cyclic peptide (EMP′)-leucine zipper fusion, SEQ ID NO: 73 (protein)
chain: MAETCHMGPMTWVCGAAPAAPAPAAGGRIARLEEKVKTLKAQNSELASTANMLREQVAQLKQKVMNGCGGKDHLIHNHHKHEHAHAEHLFSTPVWISQAQGIRAGGSGSGS
modifications: cyclic peptide disulfide; EMP'-Jun-cys-N11-SecM-GS3; DISULFID 5..14 Disulfide bridge between Cys-5 and Cys-14
Regarding B6, the “relative SRE reporter activity (relative receptor activity)” value in the test on HGF-Erk-SRE pathway [2] is given as “only aMD4dY-Jun-cys-N11-SecM-GS3 showed activity”.

B7: EMP-Jun-cys-N11-SecM-GS3 (designed binder)
chain: MAETGGLYACHMGPMTWVCQPLRGAAPAAPAPAAGGRIARLEEKVKTLKAQNSELASTANMLREQVAQLKQKVMNGCGGKDHLIHNHHKHEHAHAEHLFSTPVWISQAQGIRAGGSGSGS
modifications: cyclic peptide part closed by a disulfide bond between its two Cys
notes: In the PathHunter assay it was a free cell-free translation product
For the molecule B7, the binding result in test [4] is “binds”.

B8: aMD4dY-PA8-cys-CEBPα: aMD4dY-CEBPα leucine zipper fusion, SEQ ID NO: 49 (protein)
chain: MAETCRQFNRRTHEVWNLDCGAAPAAPAPAAGCGGRNVETQQKVLELTSDNDRLRKRVEQLSRELDTLRGIFRQ
modifications: aMD4dY-PA8-cys-CEBP; DISULFID 5..20 Disulfide bridge between Cys-5 and Cys-20
Regarding B8, the “relative reporter activity” value in the test on HGF-Erk-SRE pathway [1] is given as “found to have signal activation ability”.

B9: Jun-cys-PA8-aMD4dY: aMD4dY-leucine zipper fusion, SEQ ID NO: 51 (protein)
chain: MGRIARLEEKVKTLKAQNSELASTANMLREQVAQLKQKVMNGGCGGAAPAAPAPACRQFNRRTHEVWNLDC
modifications: Jun-cys-PA8-aMD4dY; DISULFID 56..71 Disulfide bridge between Cys-56 and Cys-71
Regarding B9, the “relative reporter activity” value in the test on HGF-Erk-SRE pathway [1] is on record as “found to have signal activation ability”.

B10: cys-Jun-PA8-aMD4dY: aMD4dY-leucine zipper fusion, SEQ ID NO: 50 (protein)
chain: MGGCGGRIARLEEKVKTLKAQNSELASTANMLREQVAQLKQKVMNAAPAAPAPACRQFNRRTHEVWNLDC
modifications: disulfide 55-70
As to B10, the “relative reporter activity” value in the test on HGF-Erk-SRE pathway [1] is “found to have signal activation ability”.
